Results: FireProtDB (doi:10.1021/bi0357412)

B1: Phosphocarrier protein HPr, P08877 (parent)
chain: MAQKTFKVTADSGIHARPATVLVQTASKYDADVNLEYNGKTVNLKSIMGVMSLGIAKGAEITISASGADENDALNALEETMKSEGLGE

Variants of: B1
Conditions: Bacillus subtilis (strain 168); pH 7; 25 °C; GdnHCl; CD; Potassium phosphate 10 mM; reversible: yes; structure 1SPH; whole UniProt chain shown
With MAQKTFKVTADSGIHARPATVLVQTASKYDADVNLEYNGKTVNLKSIMEVMSLGIAKGAEITISASGAAENDALNALEETMKSEGLGE [D69A G49E] the “ddG of mutation (higher = less stable)” value was -0.6 kcal/mol, the denaturant m value was 2.4 kcal/mol/M and the “denaturant midpoint (higher = more stable)” value was 1.8 M. The unfolding free energy was 4.3 kcal/mol.

Same assay, conditions: Bacillus subtilis (strain 168); pH 7; 25 °C; Thermal; CD; Sodium phosphate 50 mM; reversible: yes; structure 1SPH; whole UniProt chain shown
In the case of MAQKTFKVTADSGIHARPATVLVQTASKYDADVNLEYNGKTVNLKSIMEVMSLGIAKGAEITISASGAAENDALNALEETMKSEGLGE [D69A G49E], the “ddG of mutation (higher = less stable)” value is reported as 0.7 kcal/mol and the unfolding free energy is reported as 4.4 kcal/mol.

Same assay, conditions: Bacillus subtilis (strain 168); pH 7; 25 °C; Urea; CD; Sodium phosphate 50 mM; reversible: yes; structure 1SPH; whole UniProt chain shown
For MAQKTFKVTADSGIHARPATVLVQTASKYDADVNLEYNGKTVNLKSIMEVMSLGIAKGAEITISASGAAENDALNALEETMKSEGLGE [D69A G49E], the “ddG of mutation (higher = less stable)” value was 0.7 kcal/mol, the denaturant m value was 1.1 kcal/mol/M and the “denaturant midpoint (higher = more stable)” value was 3.9 M. The unfolding free energy was 4.2 kcal/mol.

Same assay, conditions: Bacillus subtilis (strain 168); pH 7; Thermal; DSC; Potassium phosphate 10 mM; reversible: yes; structure 1SPH; whole UniProt chain shown
With MAQKTFKVTADSGIHARPATVLVQTASKYDADVNLEYNGKTVNLKSIMEVMSLGIAKGAEITISASGAAENDALNALEETMKSEGLGE [D69A G49E] the Tm was 70 °C, the “change of melting temperature, mutant - wild type (higher = more stable)” value was -4.9 °C and the “unfolding enthalpy (calorimetric)” value was 71.5 kcal/mol.
